Common to all, as to experiment: EMSA
What all share (conditions): EMSA: binding buffer 100 mM Tris-HCl pH 8, 375 mM NaCl, 25 mM MgCl2, 5 mM DTT, 65% glycerol [sic]; about 1 nmol DNA in 20 ul, 25 C …
On the technique in general: Mobility shift assays separate free from complexed probe on a gel.

In series [1] the target is T1, Lrp K25Q K25Q (Salmonella Typhimurium 14028s) (UniProt A0A0F6AZA3).
T1 sequence: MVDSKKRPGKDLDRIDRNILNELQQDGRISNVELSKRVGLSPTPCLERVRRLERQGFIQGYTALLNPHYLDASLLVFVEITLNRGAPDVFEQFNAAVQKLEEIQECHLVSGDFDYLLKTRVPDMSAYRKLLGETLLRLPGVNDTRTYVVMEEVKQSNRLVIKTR

The target in series [2] is T2, Lrp K36Q K36Q (Salmonella Typhimurium 14028s) (UniProt A0A0F6AZA3).
T2 sequence: T1 sequence with Q25K, K36Q

Series [3] has as its target T3, Lrp K36R K36R (Salmonella Typhimurium 14028s) (UniProt A0A0F6AZA3).
T3 sequence: T1 sequence with Q25K, K36R

The target of series [4] is T4, Lrp wild type (Salmonella Typhimurium 14028s) (UniProt A0A0F6AZA3).
T4 sequence: T1 sequence with Q25K

One sequence from PMC5112231 can be followed below.

Substitutions are numbered along the chain they refer to.

As for “ACACAGTGGAGCAATAATAAAGAATGAGACCTCCCTGTTGACTGGCTATTTTGCGTAAGAGTAATAAATATGTGGAATATCCATTTCGCACCAACAAAAAAGAAATTTCTGATTAAGTAAAAACAATATGGATTATACCTGGTCTGATTTCTCGGAAAAGTCTTGCGAAATGCGAATTATGGATAGCGGGTAGGATATTCTG (double strand) [fimZ promoter]”, the binding entry in series [1] is given as “binds”; in series [2] it was “binds more weakly”; in series [3] it was “binds”; in series [4], “binds”.
